# Data: article doi:10.1101/219105
# Columns and labels:
# [1] = target: Asp1/2/3 complex (without a tag) (Streptococcus gordonii) (UniProt Q9AET8); assay: light scattering
# [2] = target: Asp1, untagged, as co-expressed with Asp3 and tagged Asp2 (Streptococcus gordonii) (UniProt Q9AET8); assay: light scattering
# UniProt Q9AET8, sequence (Q9AET8 whole entry): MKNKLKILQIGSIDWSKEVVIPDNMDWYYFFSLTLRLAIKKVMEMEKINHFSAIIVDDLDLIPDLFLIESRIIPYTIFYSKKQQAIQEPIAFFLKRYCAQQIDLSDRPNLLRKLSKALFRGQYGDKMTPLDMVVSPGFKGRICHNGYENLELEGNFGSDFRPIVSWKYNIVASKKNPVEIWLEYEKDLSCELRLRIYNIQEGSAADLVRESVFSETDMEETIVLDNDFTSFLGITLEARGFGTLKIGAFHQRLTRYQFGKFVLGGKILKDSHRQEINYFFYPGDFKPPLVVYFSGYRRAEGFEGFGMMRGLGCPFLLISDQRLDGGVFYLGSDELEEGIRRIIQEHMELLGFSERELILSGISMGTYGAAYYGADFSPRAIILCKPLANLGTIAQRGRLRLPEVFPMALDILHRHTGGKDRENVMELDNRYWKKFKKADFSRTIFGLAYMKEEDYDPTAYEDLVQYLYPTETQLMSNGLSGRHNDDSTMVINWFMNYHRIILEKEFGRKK
Substance,stoichiometry N [1],stoichiometry N [2]
Asp1/2/3 complex (without a tag) (from UniProt Q9AET8 1-510),2,
Asp3 (accessory Sec protein 3) (natural protein),,1
